In patent publication US20220402980A1, “CHROMOGRANIN A-DERIVED PEPTIDES AND USES THEREOF” (OSPEDALE SAN RAFFAELE S.R.L., priority 2019, published 2022):

Biological target: wild-type human integrin α5β1 (octyl β-D-glucopyranoside preparation) (human), P08648
Experiment: competitive binding assay on α5β1-coated plates, isoDGR/STV-HRP probe

Sequence of wild-type human integrin α5β1 (octyl β-D-glucopyranoside preparation) (human), P08648 (P08648 42-1049, chain 1 of 2): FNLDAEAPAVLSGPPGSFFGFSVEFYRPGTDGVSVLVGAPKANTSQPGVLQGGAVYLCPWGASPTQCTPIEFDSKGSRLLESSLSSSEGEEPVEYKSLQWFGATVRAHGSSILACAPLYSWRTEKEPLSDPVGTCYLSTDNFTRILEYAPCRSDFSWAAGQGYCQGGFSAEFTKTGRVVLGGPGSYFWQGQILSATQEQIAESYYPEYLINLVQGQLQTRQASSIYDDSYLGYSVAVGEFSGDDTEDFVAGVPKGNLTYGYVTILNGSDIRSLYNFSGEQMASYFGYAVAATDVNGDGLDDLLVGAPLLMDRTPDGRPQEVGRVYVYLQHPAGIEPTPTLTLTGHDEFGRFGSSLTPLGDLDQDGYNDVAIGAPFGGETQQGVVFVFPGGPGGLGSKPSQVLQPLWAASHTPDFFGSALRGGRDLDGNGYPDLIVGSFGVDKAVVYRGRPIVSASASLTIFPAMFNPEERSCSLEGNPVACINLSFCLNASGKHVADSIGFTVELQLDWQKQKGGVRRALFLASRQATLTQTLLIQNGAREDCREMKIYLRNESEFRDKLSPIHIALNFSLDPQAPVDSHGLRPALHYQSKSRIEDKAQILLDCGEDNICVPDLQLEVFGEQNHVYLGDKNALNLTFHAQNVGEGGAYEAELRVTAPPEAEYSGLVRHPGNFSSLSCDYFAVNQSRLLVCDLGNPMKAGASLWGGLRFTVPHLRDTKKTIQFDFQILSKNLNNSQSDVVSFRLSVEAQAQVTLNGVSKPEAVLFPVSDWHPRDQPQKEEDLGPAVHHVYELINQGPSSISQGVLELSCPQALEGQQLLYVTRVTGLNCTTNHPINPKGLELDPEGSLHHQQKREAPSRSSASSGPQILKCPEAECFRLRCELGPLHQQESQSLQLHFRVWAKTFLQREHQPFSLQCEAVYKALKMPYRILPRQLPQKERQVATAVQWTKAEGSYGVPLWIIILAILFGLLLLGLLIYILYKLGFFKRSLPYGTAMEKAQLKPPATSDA
Sequence of wild-type human integrin α5β1 (octyl β-D-glucopyranoside preparation) (human), P08648 (P05556 21-798, chain 2 of 2, further chain): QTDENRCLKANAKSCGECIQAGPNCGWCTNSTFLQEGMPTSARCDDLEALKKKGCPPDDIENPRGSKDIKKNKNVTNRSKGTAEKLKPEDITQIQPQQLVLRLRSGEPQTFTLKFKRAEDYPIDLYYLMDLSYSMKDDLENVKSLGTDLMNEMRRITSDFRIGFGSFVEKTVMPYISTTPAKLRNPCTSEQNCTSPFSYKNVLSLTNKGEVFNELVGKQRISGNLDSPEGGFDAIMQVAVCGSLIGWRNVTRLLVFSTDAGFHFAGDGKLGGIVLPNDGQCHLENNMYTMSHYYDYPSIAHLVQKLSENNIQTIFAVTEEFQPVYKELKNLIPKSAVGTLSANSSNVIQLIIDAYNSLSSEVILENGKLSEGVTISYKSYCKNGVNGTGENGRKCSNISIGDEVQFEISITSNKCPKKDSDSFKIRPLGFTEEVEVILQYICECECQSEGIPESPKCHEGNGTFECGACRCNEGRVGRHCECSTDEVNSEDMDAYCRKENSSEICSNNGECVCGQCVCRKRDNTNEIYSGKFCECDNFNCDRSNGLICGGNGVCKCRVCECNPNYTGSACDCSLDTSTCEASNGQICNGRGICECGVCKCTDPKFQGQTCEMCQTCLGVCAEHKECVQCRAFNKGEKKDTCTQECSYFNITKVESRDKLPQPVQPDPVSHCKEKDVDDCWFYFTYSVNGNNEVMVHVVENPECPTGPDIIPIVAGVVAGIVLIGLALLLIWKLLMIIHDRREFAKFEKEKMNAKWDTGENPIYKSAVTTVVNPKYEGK

B1: foot and mouth disease virus-derived peptide A20FMDV2 (peptide)
peptide: NAVPNLRGDLQVLAQKVART
modifications: not checked
Ki: 2.32 µM
